Data reported in the supplement of paper PMC10567573.

B1: GNB5 (parent)
chain: YYPSGDAFASGSDDATCRLYDLRA

Variants of: B1
Test: protein stability index of a GFP-peptide fusion (GPS, HEK-293T) (PSI 1-6); higher = more stable
Conditions: c terminus: a fixed tail appended
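Note: lentivirally expressed fusions sorted by FACS into six bins by GFP to DsRed ratio, PSI derived from sequencing read proportions per bin multiplied by bin number.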

In order of rising protein stability index:
1. YYPSGDAFASGSDYATCRLYDLRA  1.58
2. YYPSGDAFASGSMDATCRLYDLRA  1.66
3. YYPSGDAFWSGSDDATCRLYDLRA  1.72
4. YYPSGDAFASGSTDATCRLYDLRA  1.76
5. YYPSGDAFAIGSDDATCRLYDLRA  1.79
6. YYPSGDAFASGSGDATCRLYDLRA  1.89
7. YYPSGDAFASGSDRATCRLYDLRA  1.9
8. YYPSGDAFASGSDDAWCRLYDLRA  1.91
9. YYPSGDAFASGSDAATCRLYDLRA  1.91
10. YYPSGDAFASGSDLATCRLYDLRA  1.92
11. YYPSGDAFASGSLDATCRLYDLRA  1.93
12. YYPSGDAFASGSDDAVCRLYDLRA  1.95
13. YYPSGDAFASGSDNATCRLYDLRA  1.98
14. YYPSGDAFLSGSDDATCRLYDLRA  1.99
15. YVPSGDAFASGSDDATCRLYDLRA  2.02
16. YYPSGDAFASGQDDATCRLYDLRA  2.08
17. YCPSGDAFASGSDDATCRLYDLRA  2.09
18. YYPSGDAFASGSDPATCRLYDLRA  2.12
19. YYPSGDAFASGMDDATCRLYDLRA  2.13
20. YYPSGDAFASGRDDATCRLYDLRA  2.17
21. YYPSGDAFASGSQDATCRLYDLRA  2.2
22. YYPSGDAFASGSDHATCRLYDLRA  2.2
23. YYPSGDAFASGSDDYTCRLYDLRA  2.21
24. YYPSGDAFASGKDDATCRLYDLRA  2.21
25. YYPSGDAFASGSDMATCRLYDLRA  2.21
26. YYPSGDAFASGSDDSTCRLYDLRA  2.25
27. YYPSGDAFAAGSDDATCRLYDLRA  2.25
28. YYPSGDAFASGSDDTTCRLYDLRA  2.26
29. YYPSGDAFASGSEDATCRLYDLRA  2.27
30. YYPSGDAFASGSDVATCRLYDLRA  2.27
31. YYPSGDAFASGSDDALCRLYDLRA  2.32
32. YYPSGDAFVSGSDDATCRLYDLRA  2.32
33. YYPSGDAFASGSDDATCRLWDLRA  2.33
34. YYPSGDAFASGSDDKTCRLYDLRA  2.35
35. YYPSGDAFASGSDDMTCRLYDLRA  2.36
36. YYPSGDAFASGSDDAHCRLYDLRA  2.37
37. YYPSWDAFASGSDDATCRLYDLRA  2.37
38. YYPSGDAFASGSDCATCRLYDLRA  2.39
39. YYPSYDAFASGSDDATCRLYDLRA  2.4
40. YQPSGDAFASGSDDATCRLYDLRA  2.4
41. YYPSGDAFAPGSDDATCRLYDLRA  2.46
42. YMPSGDAFASGSDDATCRLYDLRA  2.48
43. YYPSGDAFASGSDDAYCRLYDLRA  2.52
44. YYPSGDAFAQGSDDATCRLYDLRA  2.54
45. YYPSGDAFASGSDEATCRLYDLRA  2.55
46. YYPSGDAFASGSDDATCRLYDQRA  2.55
47. YYPSGDAFSSGSDDATCRLYDLRA  2.56
48. YYPSGDAFAHGSDDATCRLYDLRA  2.56
49. YYPSGDAFASGSDDATTRLYDLRA  2.61
50. YYPSGDAFASGSDDATCRLYDVRA  2.62
51. YYPSGDAFASGSDDATCRLYDFRA  2.64
52. YYPSGDAFANGSDDATCRLYDLRA  2.64
53. YYPSGDAFASGSDDATCRLTDLRA  2.65
54. YYPSGDAFASGSDIATCRLYDLRA  2.65
55. FYPSGDAFASGSDDATCRLYDLRA  2.65
56. YYPSGDAFASGSDDATCRLYDGRA  2.65
57. YYPSGDAFASGSDDATCRLYDYRA  2.68
58. YYPSGDAFASGSDDANCRLYDLRA  2.69
59. YYPSPDAFASGSDDATCRLYDLRA  2.69
60. YHPSGDAFASGSDDATCRLYDLRA  2.69
61. YYPSGDAFASGSDDATCRLYDTRA  2.73
62. YYPSGDAFASGSDDATCRLYDARA  2.8
63. YYPSIDAFASGSDDATCRLYDLRA  2.8
64. YYPSGDAFASGSDDATNRLYDLRA  2.8
65. YYPSGDAFASGSDDATCRLYDPRA  2.85
66. YYPSGDAFASGSDDATGRLYDLRA  2.85
67. YYPSGDAFASGSDDATLRLYDLRA  2.87
68. YYPSGDAFASGSDDATCRLKDLRA  2.88
69. YYPSGDAFASGSDDAQCRLYDLRA  2.88
70. YYPSMDAFASGSDDATCRLYDLRA  2.88
71. YYPSGDAFASGSDDATCRLVDLRA  2.9
72. YYPSGDAFASGSDDATQRLYDLRA  2.9
73. YYPSGDAFASGHDDATCRLYDLRA  2.92
74. YYPSGDAFASGSDDATCRLNDLRA  2.95
75. YYPSADAFASGSDDATCRLYDLRA  2.95
76. YYPSGDAFASGCDDATCRLYDLRA  2.98
77. YYPSGDAFASGYDDATCRLYDLRA  2.98
78. YYPSGDAFAEGSDDATCRLYDLRA  3
79. YYPSGDAFASGSDDAKCRLYDLRA  3.11
80. YYPSGDAFASGSDDATCRLDDLRA  3.13
81. YYPSGDAFESGSDDATCRLYDLRA  3.17
82. YYPSGDAFASGSDDATDRLYDLRA  3.3
83. YYPSGDAFASGSDDATCRLPDLRA  3.32
84. YLPSGDAFASGSDDATCRLYDLRA  3.34
85. IYPSGDAFASGSDDATCRLYDLRA  3.52
86. TYPSGDAFASGSDDATCRLYDLRA  3.6
87. GYPSGDAFASGSDDATCRLYDLRA  3.7
88. NYPSGDAFASGSDDATCRLYDLRA  3.71
89. EYPSGDAFASGSDDATCRLYDLRA  3.81
90. QYPSGDAFASGSDDATCRLYDLRA  3.81
91. YYPSEDAFASGSDDATCRLYDLRA  3.96
92. SYPSGDAFASGSDDATCRLYDLRA  3.99
93. YKPSGDAFASGSDDATCRLYDLRA  4.08
94. YEPSGDAFASGSDDATCRLYDLRA  4.83
